Blank lines part the entries; values can stand above or below the binder they belong to. Numbered stars: 1 amine (or outer) side, 2 acyl side, 3 side chain; on linkers, the order of the positions; unused ones are H or OH. Bridge positions count the residues as written; N and C are the ends. Square brackets hold non-standard residues; d marks the D form. Primed or numbered codes have the meaning given here. MB(10) = Monomer B = PyrS, pyrrolidine stapling residue with allyl carbamate, (S)-3-amino-1-(allyloxycarbonyl)pyrrolidine-3-carboxylic acid, C=CCOC(=O)N1CC[C@@](N[*:1])(C(=O)[*:2])C1; MB(4) = Monomer B (PyrS), N-Alloc pyrrolidine stapling residue, (S)-3-amino-1-(allyloxycarbonyl)pyrrolidine-3-carboxylic acid, C=CCOC(=O)N1CC[C@@](N[*:1])(C(=O)[*:2])C1; MB(6) = Monomer B (PyrS), N-Alloc pyrrolidine stapling residue, forms carbamate staple with R8 by olefin metathesis; Tyr(OMe) = O-methyl tyrosine (source code MeY), COc1ccc(C[C@H](N[*:1])C(=O)[*:2])cc1; MB(13) = Monomer B (PyrS), pyrrolidine stapling residue bearing Alloc; MB(5) = Monomer B (PyrS), N-Alloc pyrrolidine stapling residue; Ala(2-furyl) = N[C@@H](Cc1ccco1)C(=O)O; Phe(4-F) = N[C@@H](Cc1ccc(F)cc1)C(=O)O; Phe(4-Me) = Cc1ccc(C[C@H](N)C(=O)O)cc1; 1Nal = N[C@@H](Cc1cccc2ccccc12)C(=O)O; Met(O2) = CS(=O)(=O)CC[C@H](N)C(=O)O; Ala(cPr) = N[C@@H](CC1CC1)C(=O)O; 2Pal = N[C@@H](Cc1ccccn1)C(=O)O; 3Pal = N[C@@H](Cc1cccnc1)C(=O)O; 4Pal = N[C@@H](Cc1ccncc1)C(=O)O; R8 = C=CCCCCCC[C@@](C)(N)C(=O)O; 2Thi = N[C@@H](Cc1cccs1)C(=O)O; Tle = CC(C)(C)[C@H](N)C(=O)O; cpa = 3-cyclopropylalanine; Aib = CC(C)(N)C(=O)O
Assays:
full-length beta-catenin [1] = target: T1, full-length beta-catenin (UniProt P35222 2-781, limits assumed); experiment: competition FP; NB = no binding detected
T1 construct: mature; also called full-length ß-Catenin; β-catenin
T1 sequence (looked up): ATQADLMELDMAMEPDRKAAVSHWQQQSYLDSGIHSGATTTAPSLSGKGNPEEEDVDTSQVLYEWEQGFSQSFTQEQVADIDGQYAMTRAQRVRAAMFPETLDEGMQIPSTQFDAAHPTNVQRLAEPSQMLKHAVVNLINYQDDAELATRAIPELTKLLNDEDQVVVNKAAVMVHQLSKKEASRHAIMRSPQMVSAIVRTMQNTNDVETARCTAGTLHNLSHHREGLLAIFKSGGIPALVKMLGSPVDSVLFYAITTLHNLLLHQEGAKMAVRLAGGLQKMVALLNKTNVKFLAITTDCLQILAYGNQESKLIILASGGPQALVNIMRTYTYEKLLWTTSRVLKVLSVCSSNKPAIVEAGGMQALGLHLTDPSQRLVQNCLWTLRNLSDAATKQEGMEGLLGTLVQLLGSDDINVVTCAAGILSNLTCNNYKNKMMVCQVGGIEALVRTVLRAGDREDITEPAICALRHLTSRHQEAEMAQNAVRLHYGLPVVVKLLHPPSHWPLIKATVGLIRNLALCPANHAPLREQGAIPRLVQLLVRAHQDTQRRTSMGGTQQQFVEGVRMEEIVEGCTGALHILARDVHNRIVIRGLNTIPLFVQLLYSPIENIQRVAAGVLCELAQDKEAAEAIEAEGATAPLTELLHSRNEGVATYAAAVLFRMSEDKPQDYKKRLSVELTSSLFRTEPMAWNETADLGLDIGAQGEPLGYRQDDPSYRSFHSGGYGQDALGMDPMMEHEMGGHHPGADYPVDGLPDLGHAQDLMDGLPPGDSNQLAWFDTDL
Experimental: (§1) In some embodiments, a competition fluorescence polarization assay is used to assess binding of provided compounds to beta-catenin. In an exemplary procedure, solutions of provided compounds, e.g., provided stapled peptides, were prepared in a buffer (e.g., 50 mM Tris pH 8.0, 250 mM NaCl, 2% glycerol, 0.5 mM EDTA, 0.02% w/v sodium azide) using a 3-fold serial dilution from 5 µM. Probe solution (15 nM full-length ß-Catenin, 20 nM FITC labeled peptide in buffer) was prepared and incubated for a period of time, e.g., 5 minutes, and the a volume, e.g., 40 µL per well plated in suitable plate, e.g., a black polystyrene 384-well plate (Corning). Equal volume of the serial diluted peptide was added to the plate and incubated protected from light for 15 minutes prior to read. Reads were performed on a Spectramax M5 (Molecular Devices) in duplicate. Suitable probe was FITC-PEG1-PQ-S5-ILD-S5-HVRRVWR (SEQ ID NO: 1) (hydrocarbon staple formed by two S5 via olefin metathesis) and/or FITC-bA-PQ-S5-ILD-S5-HVRRVWR (SEQ ID NO: 3) (hydrocarbon staple formed by two S5 via olefin metathesis). […] Another peptide, FPO217c (Ac-AR_8ILDAHIM$B5$RVW (SEQ ID NO: 280), with N-terminal proline removed and valine replaced with isoleucine compared to FP0025c) was prepared.

full-length beta-catenin [2] = target: T1, full-length beta-catenin; experiment: competition FP, grade of FP EC50 (+: 500-5000 nM)
Experimental: as §1

binding result (full-length beta-catenin [1]): no binding
B1: FP0570c Isomer 2 (peptide)
peptide: Ac-A[R8]ILDA[2Pal]I[MB(6)][Aib]VW-NH2
modifications: staple 2-9; not fully specified; printed as Ac-A-R8-I-L-D-A-2pyr-I-MB-Aib-V-W-NH2

binding result (full-length beta-catenin [1]): no binding
B2: FP0570c Isomer 1 (peptide)
peptide: Ac-A[R8]ILDA[2Pal]I[MB(6)][Aib]VW-NH2
modifications: staple 2-9; not fully specified; printed as Ac-A-R8-I-L-D-A-2pyr-I-MB-Aib-V-W-NH2

FP EC50 (full-length beta-catenin [2]): 500 to 5000 nM
B3: FP0365c Isomer 1 (peptide)
peptide: AXILDAHIXAVW
modifications: not fully specified; Ac-A-R8-I-L-D-A-H-I-MB-1NapA-V-W-NH2; carbamate staple R8/MB

FP EC50 (full-length beta-catenin [2]): 500 to 5000 nM
Binder: Ac-A[R8]ILDA[4Pal]I[MB(13)]RVW-NH2 (staple 2-9) [FP0538c]

binding result (full-length beta-catenin [1]): no binding
B4: FP0571c Isomer 2 (peptide)
peptide: Ac-A[R8]ILDA[2Pal]I[MB(6)][2Thi]VW-NH2
modifications: staple 2-9; not fully specified; printed as Ac-A-R8-I-L-D-A-2pyr-I-MB-thi-V-W-NH2

FP EC50 (full-length beta-catenin [2]): 500 to 5000 nM
B5: FP0365c Isomer 2 (peptide)
peptide: AXILDAHIXAVW
modifications: not fully specified; Ac-A-R8-I-L-D-A-H-I-MB-1NapA-V-W-NH2; carbamate staple R8/MB

binding result (full-length beta-catenin [1]): no binding
B6: FP0578c Isomer 2 (peptide)
peptide: Ac-A[R8]ILDA[2Pal]I[MB(4)][Phe(4-Me)]VW-NH2
modifications: staple 2-9; not fully specified; printed as Ac-A-R8-I-L-D-A-2pyr-I-MB-4MeF-V-W-NH2

binding result (full-length beta-catenin [1]): no binding
B7: FP0577c Isomer 1 (peptide)
peptide: Ac-A[R8]ILDA[2Pal]I[MB(4)][1Nal]VW-NH2
modifications: staple 2-9; not fully specified; printed as Ac-A-R8-I-L-D-A-2pyr-I-MB-1NapA-V-W-NH2

FP EC50 (full-length beta-catenin [2]): 500 to 5000 nM
Binder: AXALDAHIXRVW (not fully specified; Ac-A-R8-A-L-D-A-H-I-MB-R-V-W-NH2; carbamate staple R8/MB) [FP0405c]

binding result (full-length beta-catenin [1]): no binding
B8: FP0574c Isomer 1 (peptide)
peptide: Ac-A[R8]ILDA[2Pal]I[MB(5)][Ala(cPr)]VW-NH2
modifications: staple 2-9; not fully specified; printed as Ac-A-R8-I-L-D-A-2pyr-I-MB-cpa-V-W-NH2

binding result (full-length beta-catenin [1]): no binding
B9: FP0576c Isomer 2 (peptide)
peptide: Ac-A[R8]ILDA[2Pal]I[MB(4)][Phe(4-F)]VW-NH2
modifications: staple 2-9; not fully specified; printed as Ac-A-R8-I-L-D-A-2pyr-I-MB-4FF-V-W-NH2

binding result (full-length beta-catenin [1]): no binding
B10: FP0574c Isomer 2 (peptide)
peptide: Ac-A[R8]ILDA[2Pal]I[MB(4)][cpa]VW-NH2
modifications: staple 2-9; not fully specified; printed as Ac-A-R8-I-L-D-A-2pyr-I-MB-cpa-V-W-NH2

binding result (full-length beta-catenin [1]): no binding
B11: FP0568c Isomer 1 (peptide)
peptide: Ac-A[R8]ILDA[2Pal]I[MB(6)][Tle]VW-NH2
modifications: staple 2-9; not fully specified; printed as Ac-A-R8-I-L-D-A-2pyr-I-MB-tLeu-V-W-NH2

binding result (full-length beta-catenin [1]): no binding
B12: FP0572c Isomer 1 (peptide)
peptide: Ac-A[R8]ILDA[2Pal]I[MB(5)][2Pal]VW-NH2
modifications: staple 2-9; not fully specified; printed as Ac-A-R8-I-L-D-A-2pyr-I-MB-2pyr-V-W-NH2

FP EC50 (full-length beta-catenin [2]): 500 to 5000 nM
Binder: AXILAAHIXRVW (not fully specified; Ac-A-R8-I-L-A-A-H-I-MB-R-V-W-NH2; carbamate staple R8/MB) [FP0407c]

binding result (full-length beta-catenin [1]): no binding
B13: FP0569c Isomer 1 (peptide)
peptide: Ac-A[R8]ILDA[2Pal]I[MB(6)][Ala(2-furyl)]VW-NH2
modifications: staple 2-9; not fully specified; printed as Ac-A-R8-I-L-D-A-2pyr-I-MB-fur-V-W-NH2

FP EC50 (full-length beta-catenin [2]): 500 to 5000 nM
Binder: Ac-A[R8]ILDAHI[MB(10)]SVW-NH2 (staple 2-9) [FP0542c]

binding result (full-length beta-catenin [1]): no binding
B14: FP0575c Isomer 2 (peptide)
peptide: Ac-A[R8]ILDA[2Pal]I[MB(4)][Tyr(OMe)]VW-NH2
modifications: staple 2-9; not fully specified; printed as Ac-A-R8-I-L-D-A-2pyr-I-MB-MeY-V-W-NH2

binding result (full-length beta-catenin [1]): no binding
B15: FP0578c Isomer 1 (peptide)
peptide: Ac-A[R8]ILDA[2Pal]I[MB(4)][Phe(4-Me)]VW-NH2
modifications: staple 2-9; not fully specified; printed as Ac-A-R8-I-L-D-A-2pyr-I-MB-4MeF-V-W-NH2

FP EC50 (full-length beta-catenin [2]): 500 to 5000 nM
Binder: Ac-A[R8]IL[Met(O2)]AHI[MB(5)]RVW-NH2 (staple 2-9) [FP0629c]

binding result (full-length beta-catenin [1]): no binding
B16: FP0573c Isomer 1 (peptide)
peptide: Ac-A[R8]ILDA[2Pal]I[MB(5)][3Pal]VW-NH2
modifications: staple 2-9; not fully specified; printed as Ac-A-R8-I-L-D-A-2pyr-I-MB-3pyr-V-W-NH2

binding result (full-length beta-catenin [1]): no binding
B17: FP0576c Isomer 1 (peptide)
peptide: Ac-A[R8]ILDA[2Pal]I[MB(4)][Phe(4-F)]VW-NH2
modifications: staple 2-9; not fully specified; printed as Ac-A-R8-I-L-D-A-2pyr-I-MB-4FF-V-W-NH2

binding result (full-length beta-catenin [1]): no binding
B18: FP0568c Isomer 2 (peptide)
peptide: Ac-A[R8]ILDA[2Pal]I[MB(6)][Tle]VW-NH2
modifications: staple 2-9; not fully specified; printed as Ac-A-R8-I-L-D-A-2pyr-I-MB-tLeu-V-W-NH2

binding result (full-length beta-catenin [1]): no binding
B19: FP0575c Isomer 1 (peptide)
peptide: Ac-A[R8]ILDA[2Pal]I[MB(4)][Tyr(OMe)]VW-NH2
modifications: staple 2-9; not fully specified; printed as Ac-A-R8-I-L-D-A-2pyr-I-MB-MeY-V-W-NH2

binding result (full-length beta-catenin [1]): no binding
B20: FP0571c Isomer 1 (peptide)
peptide: Ac-A[R8]ILDA[2Pal]I[MB(6)][2Thi]VW-NH2
modifications: staple 2-9; not fully specified; printed as Ac-A-R8-I-L-D-A-2pyr-I-MB-thi-V-W-NH2

binding result (full-length beta-catenin [1]): no binding
B21: FP0569c Isomer 2 (peptide)
peptide: Ac-A[R8]ILDA[2Pal]I[MB(6)][Ala(2-furyl)]VW-NH2
modifications: staple 2-9; not fully specified; printed as Ac-A-R8-I-L-D-A-2pyr-I-MB-fur-V-W-NH2

binding result (full-length beta-catenin [1]): no binding
B22: FP0573c Isomer 2 (peptide)
peptide: Ac-A[R8]ILDA[2Pal]I[MB(5)][3Pal]VW-NH2
modifications: staple 2-9; not fully specified; printed as Ac-A-R8-I-L-D-A-2pyr-I-MB-3pyr-V-W-NH2

From patent publication US11198713B2, “Agents modulating beta-catenin functions and methods thereof” (FOG PHARMACEUTICALS, INC., priority 2017, dated 2021)
